# According to paper PMC3720256:
# Columns and labels:
# Assay in all cases: EMSA
# Ryp2;Ryp3 = biological target: T1, Ryp2;Ryp3 (Histoplasma capsulatum …, UniProt B2CQK0;B2CQK1 1-404;1-373, |); conditions: protein: ivt;ivt; tags: C-terminal TEV site-6xHis;C-terminal TEV site-6xHis; copies: 1;1; label: 5'-IRDye800 (Fwd strand); blunt
# T1 sequence 1: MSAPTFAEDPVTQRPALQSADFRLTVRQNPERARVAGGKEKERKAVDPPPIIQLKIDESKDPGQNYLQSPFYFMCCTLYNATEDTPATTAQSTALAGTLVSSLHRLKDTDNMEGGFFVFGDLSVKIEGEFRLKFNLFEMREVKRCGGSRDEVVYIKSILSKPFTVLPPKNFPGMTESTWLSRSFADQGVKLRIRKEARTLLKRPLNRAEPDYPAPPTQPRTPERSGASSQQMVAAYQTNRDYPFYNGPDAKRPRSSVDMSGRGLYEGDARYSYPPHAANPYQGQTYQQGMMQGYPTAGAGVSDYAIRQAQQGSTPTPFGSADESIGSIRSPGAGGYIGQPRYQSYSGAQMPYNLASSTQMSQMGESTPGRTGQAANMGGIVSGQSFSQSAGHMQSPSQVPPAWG
# T1 sequence 2: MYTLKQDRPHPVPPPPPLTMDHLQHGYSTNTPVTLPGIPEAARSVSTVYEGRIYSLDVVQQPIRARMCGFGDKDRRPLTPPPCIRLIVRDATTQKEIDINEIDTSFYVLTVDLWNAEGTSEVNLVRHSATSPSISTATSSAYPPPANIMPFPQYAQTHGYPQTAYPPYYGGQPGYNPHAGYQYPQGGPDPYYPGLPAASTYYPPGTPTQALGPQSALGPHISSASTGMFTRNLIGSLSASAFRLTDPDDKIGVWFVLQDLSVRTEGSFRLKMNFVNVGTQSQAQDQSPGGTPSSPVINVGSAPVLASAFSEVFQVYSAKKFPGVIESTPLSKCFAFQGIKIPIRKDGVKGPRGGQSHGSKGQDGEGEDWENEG
# Ryp1(N) = Ryp1(N) (Histoplasma capsulatum G217B, UniProt A9QXX8 1-267); conditions: protein: ivt; tags: C-terminal TEV site-6xHis; label: 5'-IRDye800 (Fwd strand); blunt
# Ryp1 = Ryp1 (Histoplasma capsulatum G217B, UniProt A9QXX8 1-487); conditions: protein: ivt; tags: C-terminal TEV site-6xHis; label: 5'-IRDye800 (Fwd strand); blunt
Binder,binding result (Ryp2;Ryp3),binding result (Ryp1(N)),binding result (Ryp1)
CBP1 promoter Motif B probe (dsDNA) DNA 1: ATCAGGCGTCCGATCAGGTGATTGCTTTTAACCTTGGGATCCAGAGATCTCTCTATCTTT DNA 2: AAAGATAGAGAGATCTCTGGATCCCAAGGTTAAAAGCAATCACCTGATCGGACGCCTGAT,binds,–,–
CBP1 promoter Motif A probe (dsDNA) DNA 1: TAATGGTTCCAGATTGAGTTTCGTTTAAAGTTCACAACTCAATTCGGCAGCTCCGCTGCA DNA 2: TGCAGCGGAGCTGCCGAATTGAGTTGTGAACTTTAAACGAAACTCAATCTGGAACCATTA,–,binds,binds
